The values that follow come from patent US20040052799A1, “Nucleic acid and amino acid sequences relating to Helicobacter pylori for diagnostics and therapeutics” (Astra Aktiebolag, priority 1996, published 2004).

The target in data set [1] is H. pylori Asd (Helicobacter pylori, UniProt Q9ZK28). Briefly: Asd assay, reverse reaction, NADPH formation. As for the experimental part:
The enzymatic activity of purified His-tagged H. pylori Asd (SEQ ID NO: 6545) was characterized by assaying the reverse reaction of phosphorylation of L-aspartate-β-semialdehyde (ASA) to L-p-aspartyl phosphate, with concomitant reduction of NADP^+ to NADPH. The formation of NADPH was detected by its absorbance, 340 nm, or by its fluorescence, excitation =340 nm, emission 455 nm.
ASA in 4 N HCl was prepared daily for use in Asd assays by partial neutralization with addition of 1.0 equivalent of […], with a resulting pH=1-2. The amount of ASA was determined enzymatically by complete reaction in the presence of excess NADP^+and phosphate. […] Assays were performed in the following buffer: 200 mM HEPES, 0.3 mM NADP^+, 30 mM NaH2PO4, 1.0 mM DTT, pH 7.5 or pH 8.0. ASA was used in the assay at concentrations of 5-165 μM by diluting the partially-neutralized ASA stock into the assay 10-200 fold, leading to a decrease in pH of 0.1 units or less. Reaction was initiated with the addition of enzyme to a final concentration of 3.5-70 nM.

The target in data set [2] is T1, H. pylori MurC (Helicobacter pylori, UniProt Q9ZLL2).
T1 sequence (Q9ZLL2 1-449): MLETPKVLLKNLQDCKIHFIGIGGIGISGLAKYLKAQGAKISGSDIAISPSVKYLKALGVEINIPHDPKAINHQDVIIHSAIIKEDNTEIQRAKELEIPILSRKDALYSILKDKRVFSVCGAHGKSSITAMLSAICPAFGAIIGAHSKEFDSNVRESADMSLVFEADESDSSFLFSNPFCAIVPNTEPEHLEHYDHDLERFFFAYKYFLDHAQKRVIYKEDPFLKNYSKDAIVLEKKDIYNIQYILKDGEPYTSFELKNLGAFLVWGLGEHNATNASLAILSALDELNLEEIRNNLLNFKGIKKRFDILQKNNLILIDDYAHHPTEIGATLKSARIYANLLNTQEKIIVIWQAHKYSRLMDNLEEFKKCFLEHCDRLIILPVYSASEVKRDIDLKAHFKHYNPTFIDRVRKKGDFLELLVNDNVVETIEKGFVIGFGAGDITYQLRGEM
Briefly: MurC continuous assay, ADP formation coupled to pyruvate kinase/lactate dehydrogenase. The following applies: 500 μM UDP-N-acetylmuramate, 1 mM L-alanine, 1 mM ATP, 0.0018 mg/ml MurC, 37° C. The data set is classed as biochemical. As for the experimental part:
Purified H. pylori MurC was assayed using a continuous assay by coupling ADP formation with NADH oxidation by the pyruvate kinase/lactate dehydrogenase enzyme couple. Assay conditions were as follows: 100 mM Tris·HCl pH 8.0, 2.5 mM 2-mercaptoethanol, 20 mM KCl, 10 mM DTT, 2 mM MgCl2, 10 mM PEP, 0.15 mM NADH, 3.5 units of pyruvate kinase, 5.5 units of lactate dehydrogenase (Sigma), 500 μM UDP-N-acetylmuramate, 1 mM L-alanine, 1 mM ATP and 0.0018 mg/ml MurC at 37° C. […] Previously boiled enzyme could not support ADP formation. Steady state analysis of the dependence of reaction velocity on substrate concentration was done by varying the concentration of a single substrate in concentrations ranging from 0.5 to 5 times Km while holding the other two substrates constant at 5 times Km concentrations.

In data set [3] the target is T2, H. pylori glutamate racemase (murI gene product) (Helicobacter pylori, UniProt Q9ZLT0).
T2 construct: made in house; host or cells: E. coli BL21(DE3) carrying pET-23-murI and pACYC-groE (GroES/GroEL co-expressed)
T2 sequence (Q9ZLT0 1-255): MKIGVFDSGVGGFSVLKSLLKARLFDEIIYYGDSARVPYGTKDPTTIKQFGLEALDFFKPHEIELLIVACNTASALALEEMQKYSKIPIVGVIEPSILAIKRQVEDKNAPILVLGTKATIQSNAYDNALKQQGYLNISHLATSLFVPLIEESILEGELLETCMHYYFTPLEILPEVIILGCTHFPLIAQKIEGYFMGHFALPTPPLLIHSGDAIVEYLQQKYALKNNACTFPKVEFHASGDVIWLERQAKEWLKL
Briefly: Glutamate racemase activity, conversion of D-glutamate to L-glutamate (two enzyme and single enzyme coupled assays). The data set is classed as biochemical. The following applies: purified recombinant enzyme. As to the method:
The activity of glutamate racemase, interconversion of the enantiomers of glutamic acid, was measured using D-glutamic acid as substrate. The method of Gallo and Knowles (Gallo, K. A. and Knowles, J. R., 1993, Biochmistry 32, 3981-3990) that was used to measure the glutamate racemase activity of Lactobacillus fermenti was adapted for the measurement of glutamate racemase activity of the H. pylori murI gene product isolated as a recombinant protein from E. coli. […] Initial rates were determined by following the increase in absorbance at 500 nm in a reaction volume of 200 μl containing 50 mM Tris-HCl, pH 7.8, 4% v/v glycerol, 10 mM NAD, 2 mM INT, 60 Units/ml L-glutamate dehydrogenase, 5 Units/ml diaphorase, and varying concentrations of either substrate (from 0.063 mM to 250 mM D-glutamic acid) or purified enzyme (from 1 μg to 50 μg). After a preincubation of all reagents except either the substrate (D-glutamic acid) or the enzyme (murI gene product) for a period of 5 minutes, reactions were initiated by adding the missing ingredient (i.e., the enzyme or the subtrate, as required), and the increase in optical density at 500 nm was measured in a Microplate Spectophotometer System (Molecular Devices, Spectra MAX 250). Measurements were followed for 20 minutes, and initial velocities were derived by calculating the maximum slope for the absorbance increases. […]

B1: H. pylori Asd: purified His-tagged H. pylori Asd (SEQ ID NO: 6545) (protein, listed as Helicobacter pylori)
chain: MKTYNVAIVGASGAVGQELIKGLENSFFPIKKFVPLASARSAGKKIRAFNKDYEILETTHEVFEKEEIDIAFFSAGGSVSEEFAISASKTALVIDNTSFFRLNKDVPLVVPEINAQEIFNAPLNIIANPNCSTIQMTQILNPLHLHFKIKSVIVSTYQAVSGAGNKGIESLKNELKTALEHLEKDPAIDLNQVLQAGAFAYPIAFNAIAHIDTFKENGYTKEELKMVHETHKIMGVDFPISATCVRVPVLRSHSESLSIAFEKEFDLKEVYEVLKNAPSVVVCDDPSHNLYPTPLKASHTDSVFIGRLRKDLFDKKTLHGFCVADQLRVGAATNALKIALHYIKNA
modifications: His tag; misc_feature (B) LOCATION 1...346; hypothetical: YES
In the case of B1, in data set [1], the “decrease of kcat relative to the E. coli enzyme” value is “about 5 fold”. In data set [1] (ionic strength as high as 0.7 M), the “effect of ionic strength on activity” value is given as “unaffected”. Moreover, the kcat in data set [1] (pH 8.0) was found to be 5.4 s⁻¹.

B2: H. pylori MurC: His-tagged H. pylori MurC (SEQ ID NO: 7607) purified from E. coli (protein, listed as Helicobacter pylori)
chain: MLETPKVLLKNLQDCKIHFIGIGGIGISGLAKYLKAQGAKISGSDIAISPSVKYLKALGVEINIPHDPKAINHQDVIIHSAIIKEDNTEIQRAKELEIPILSRKDALYSILKDKRVFSVCGAHGKSSITAMLSAICPAFGAIIGAHSKEFDSNVRESADMSLVFEADESDSSFLFSNPFCAIVPNTEPEHLEHYDHDLERFFFAYKYFLDHAQKRVIYKEDPFLKNYSKDAIVLEKKDIYNIQYILKDGEPYTSFELKNLGAFLVWGLGEHNATNASLAILSALDELNLEEIRNNLLNFKGIKKRFDILQKNDLILIDDYAHHPTEIGTTLKSARIYANLLNTQEKIIVIWQAHKYSRLMDNLEEFKKCFLEHCDRLIILPVYSASEVKRDIDLKAHFKHYNPTFIDRVRKKGDFLELLVNDNVVETIEKGFVIGFGAGDITYQLRGEM
modifications: His tag; misc_feature (B) LOCATION 1...449; hypothetical: YES
For the molecule B2, the specific activity in data set [2] came out at 5900 nmol/min/mg.

B3: H. pylori glutamate racemase: purified recombinant H. pylori glutamate racemase (SEQ ID NO: 7635) (protein, listed as Helicobacter pylori)
chain: MKIGVFDSGVGGFSVLKSLLKARLFDEIIYYGDSARVPYGTKDPTTIKQFGLEALDFFKPHEIELLIVACNTASALALEEMQKYSKIPIVGVIEPSILAIKRQVEDKNAPILVLGTKATIQSNAYDNALKQQGYLNISHLATSLFVPLIEESILEGELLETCMHYYFTPLEILPEVIILGCTHFPLIAQKIEGYFMGHFALPTPPLLIHSGDAIVEYLQQKYALKNNACTFPKVEFHASGDVIWLERQAKEWLKL
modifications: misc_feature (B) LOCATION 1...255; hypothetical: YES
For B3, the kcat in data set [3] was determined as 0.143 s⁻¹. In addition, in data set [3] (D-glutamate substrate), the Vmax is recorded as approximately 300 nmoles/min/mg protein.

In general, kcat refers to the number of substrate molecules converted per active site and unit of time at saturation.
